Source: PMC6412888, “Improving the Performance of Horseradish Peroxidase by Site-Directed Mutagenesis” (International Journal of Molecular Sciences, 2019)

B1: Benchmark rHRP (HRP variant C1A) (Armoracia rusticana) (protein)
chain: QLTPTFYDNSCPNVSNIVRDTIVNELRSDPRIAASILRLHFHDCFVNGCDASILLDNTTSFRTEKDAFGNANSARGFPVIDRMKAAVESACPRTVSCADLLTIAAQQSVTLAGGPSWRVPLGRRDSLQAFLDLANANLPAPFFTLPQLKDSFRNVGLNRSSDLVALSGGHTFGKNQCRFIMDRLYNFSNTGLPDPTLNTTYLQTLRGLCPLNGNLSALVDFDLRTPTIFDNKYYVNLEEQKGLIQSDQELFSSPNATDTIPLVRSFANSTQTFFNAFVEAMDRMGNITPLTGTQGQIRLNCRVVNSNS
notes: mature HRP C1A without plant leader; E. coli BL21(DE3) periplasm, non-glycosylated, IMAC purified; hemin and CaCl2 added

How the values were obtained:
[1] = test system: T1, CCn1c(=NN=c2sc3cc(S(=O)(=O)O)ccc3n2CC)sc2cc(S(=O)(=O)O)ccc21; assay: purified protein; format: biochemical, Armoracia rusticana
T1 construct: mature HRP C1A without plant leader; E. coli BL21(DE3) periplasm, non-glycosylated, IMAC purified; hemin and CaCl2 added

[2] = substrate: CCn1c(=NN=c2sc3cc(S(=O)(=O)O)ccc3n2CC)sc2cc(S(=O)(=O)O)ccc21; assay: purified protein; format: biochemical, Armoracia rusticana; settings: 1 mM H2O2, 50 mM KH2PO4 pH 5, 30 °C
[3] = 1 mM H2O2, 50 mM BisTris/HCl pH 7, 7% glycerol, 100 mM NaCl, 30 °C
[4] = 1 mM H2O2, 50 mM KH2PO4 pH 5, 30 °C

Molecule	Km [1, 3] [mM]	Vmax [1, 3] [µM/min]	kcat [1, 3] [s⁻¹]	kcat/Km [1, 3] [M⁻¹ s⁻¹]	other results
Benchmark rHRP (HRP variant C1A) (Armoracia rusticana; N43D)	3.29 ± 0.33	52.8	1.04 ± 0.05	320 ± 40	
Benchmark rHRP (HRP variant C1A) (Armoracia rusticana; N87S)	3.22 ± 0.59	162	2.1 ± 0.19	640 ± 130	
Benchmark rHRP (HRP variant C1A) (Armoracia rusticana; N285D)	4.37 ± 0.86	53.4	1.1 ± 0.12	240 ± 50	
Benchmark rHRP (HRP variant C1A) (Armoracia rusticana; N285D/N298D/N43D/N87S)					Km [1, 4]: 0.45 ± 0.12 mM; Vmax [1, 4]: 1080 µM/min; kcat [1, 4]: 17.4 ± 1.01 s⁻¹; kcat/Km [1, 4]: 39100 ± 10500 M⁻¹ s⁻¹
Benchmark rHRP (HRP variant C1A) (Armoracia rusticana; N285D/N298D/N87S)	9.52 ± 6.89	240	4.81 ± 2.37	510 ± 440	
Benchmark rHRP (HRP variant C1A) (Armoracia rusticana; N298D)	7.85 ± 4.98	144	3 ± 1.25	380 ± 290	
Benchmark rHRP (HRP variant C1A) (Armoracia rusticana; N298D/N87S)	4.18 ± 3.55	60	1.5 ± 0.58	360 ± 340	
B1					Km [2]: 0.44 ± 0.10 mM; Vmax [2]: 120 µM/min; kcat [2]: 2.24 ± 0.11 s⁻¹; kcat/Km [2]: 5070 ± 1160 M⁻¹ s⁻¹
